Each block holds one binder with its values, some of them ahead of it.
Key:
[1] = molecular target: T1, human FcγRIIA (NM_021642) expressed on cells (human, UniProt P12318 36-317); test: flow cytometry; Expi293F cells transfected with FcγRIIA
T1 construct: Transiently expressed on Expi293F cells; also used here for FcγRIIA on human macrophages in the ADCP assay; also called Expi293F FcγRIIA; HEK293F cells expressing FcγRIIA
T1 sequence: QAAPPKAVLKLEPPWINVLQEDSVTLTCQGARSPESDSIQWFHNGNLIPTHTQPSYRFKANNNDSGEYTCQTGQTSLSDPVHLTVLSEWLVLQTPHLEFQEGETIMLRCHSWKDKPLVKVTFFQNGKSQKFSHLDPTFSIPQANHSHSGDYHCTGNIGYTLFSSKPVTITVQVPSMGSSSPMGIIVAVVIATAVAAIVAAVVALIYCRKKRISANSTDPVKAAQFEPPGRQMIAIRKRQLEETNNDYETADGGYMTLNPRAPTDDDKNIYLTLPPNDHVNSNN
Procedure: (§1) Plasmids expressing cDNAs encoding human FcγRI (NM_000566) (SEQ ID NO: 44), FcγRIIA (NM_021642) (SEQ ID NO: 2), FcγRIIB (NM_004001) (SEQ ID NO: 3), and FcγRIIIA (NM_000569) (SEQ ID NO: 45) (Origene) were transiently transfected into Expi293F cells by ExpiFectamine293 transfection kit (Life Technologies). Flow cytometry assays were performed 48 h after transfection.
(§2) 2×10⁵ cells per well were seeded in 96-well plate and blocked in BSA Stain Buffer (BD Biosciences, San Jose, USA) for 30 min at 4° C. Cells were incubated with test mAbtyrin on ice for 1.5 h at 4° C. After being washed twice with BSA stain buffer, the cells were incubated with R-PE labeled anti-human or anti-mouse IgG secondary antibody (Jackson Immunoresearch Laboratories) for 45 min at 4° C. The cells were washed twice in stain buffer and then resuspended in 150 μL of Stain Buffer containing 1:200 diluted DRAQ7 live/dead stain (Cell Signaling Technology, Danvers, USA). PE and DRAQ7 signals of the stained cells were detected by Miltenyi MACSQuant flow cytometer (Miltenyi Biotec, Auburn, USA) using B2 and B4 channel respectively. Live cells were gated on DRAQ7 exclusion and the geometric mean fluorescence signals were determined for at least 10,000 live events collected. FlowJo software (Tree Star) was used for analysis. Data was plotted as the logarithm of antibody concentration versus mean fluorescence signals. Nonlinear regression analysis was performed by GraphPad Prism 6 (GraphPad Software, Inc.) and EC₅₀ values were calculated.

[2] = molecular target: T2, human FcγRIIB (NM_004001) expressed on cells (human, UniProt P31994 43-310); test: flow cytometry; Raji cells (express predominantly FcγRIIB)
T2 construct: Transiently expressed on Expi293F cells; also called Expi293F FcγRIIB; HEK293F cells expressing FcγRIIB
T2 sequence: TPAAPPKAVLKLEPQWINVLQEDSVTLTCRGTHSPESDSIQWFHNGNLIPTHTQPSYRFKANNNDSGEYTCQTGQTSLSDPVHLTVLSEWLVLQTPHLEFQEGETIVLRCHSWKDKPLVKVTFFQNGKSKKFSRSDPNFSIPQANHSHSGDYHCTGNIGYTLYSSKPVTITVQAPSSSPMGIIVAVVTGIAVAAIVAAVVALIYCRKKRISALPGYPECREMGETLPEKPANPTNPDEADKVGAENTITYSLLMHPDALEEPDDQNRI

[3] = molecular target: T1, human FcγRIIA (NM_021642) expressed on …; test: cell-based or functional assay
[4] = molecular target: T2, human FcγRIIB (NM_004001) expressed on …; test: flow cytometry; Expi293F cells transfected with FcγRIIB
Procedure: as §1, §2

[5] = molecular target: T3, FcγRIIA protein (human, UniProt P12318 36-217, biotinylated (SureLINK Biotin Kit) in the ELISA of Example 1); test: ELISA; FcγRIIA protein coated on plate, anti-human IgG-HRP detection
T3 construct: Soluble/recombinant antigen used in ELISA; also called bt-FcγRIIA; recombinant FcγRIIA protein
T3 sequence: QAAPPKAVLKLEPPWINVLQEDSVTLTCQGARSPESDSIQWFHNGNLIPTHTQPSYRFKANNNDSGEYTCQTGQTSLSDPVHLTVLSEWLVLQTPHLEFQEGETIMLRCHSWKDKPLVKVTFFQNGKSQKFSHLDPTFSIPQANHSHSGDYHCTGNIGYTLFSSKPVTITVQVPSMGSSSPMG
Procedure: Effect of the mAbtyrins on T cell activation was evaluated. Briefly, recombinant FcγRIIB or FcγRIIA protein was coated on the plate to provide the crosslinking activity. For T cell activation assay, 100 μL of 30 ng/mL anti-CD3 antibody (OKT3) and 1 μg/mL FcγRIIB or FcγRIIA protein in DPBS were coated in U-bottomed 96-well tissue culture plate overnight. CD4 positive T cells were isolated from PBMC by negative selection. OX40 expression was induced by culturing the isolated T cells in the presence of 1 μg/mL PHA overnight. On the assay day, the coating solution in the plate were aspirated and 150 μL RPMI media was added to block the plate. The cultured T cells were washed three times by RPMI culture media and between 25,000 to 50,000 CD4 positive T cells were seeded in each well in the assay plate. Test mAbtyrins were added to the cells and the plate was incubated for 3 days. T cell activation was assessed by the induction of IFNγ or TNFα production, which was quantitated by human IFNγ or TNFα ELISA detection kit (Biolegend). Prior to T cell activation assay, the binding affinity of mAbtyrins to immobilized FcγRIIB or FcγRIIA protein were evaluated by an ELISA assay. […] The binding of mAbtyrins to immobilized FcγRIIB or FcγRIIA protein were detected by HRP-conjugated anti-Human IgG(γ) secondary antibody and quantitated by ELISA assay using TMB substrate.

EC50 [1]: 0.066 µg/mL
fold binding signal over OX40SF2IgG2sigma at 10 µg/mL [2]: ≥ 6 fold
EC50 [4]: 1.52 µg/mL
B1: OX40SF2IgG2sigma_R2BS29_HC-C (bispecific antibody)
heavy: QVQLVQSGAEVKKPGSSVKVSCKASGYTFKDYTMHWVRQAPGQGLEWIGGIYPNNGGSTYNQNFKDRVTLTADKSTSTAYMELSSLRSEDTAVYYCARMGYHGPHLDFDVWGQGTTVTVSSASTKGPSVFPLAPCSRSTSESTAALGCLVKDYFPEPVTVSWNSGALTSGVHTFPAVLQSSGLYSLSSVVTVPSSNFGTQTYTCNVDHKPSNTKVDKTVERKCCVECPPCPAPPAAASSVFLFPPKPKDTLMISRTPEVTCVVVDVSAEDPEVQFNWYVDGVEVHNAKTKPREEQFNSTFRVVSVLTVLHQDWLNGKEYKCKVSNKGLPSSIEKTISKTKGQPREPQVYTLPPSREEMTKNQVSLTCLVKGFYPSDIAVEWESNGQPENNYKTTPPMLDSDGSFFLYSKLTVDKSRWQQGNVFSCSVMHEALHNHYTQKSLSLSPGKGGGGGSGGGGSGGGGSGGGGSLPAPKNLVVSRVTEDSARLSWTAPDAAFDSFPIYYWEYRVGGEAIVLTVPGSERSYDLTGLKPGTEYFVYINGVKGGEESRPLSAIFTT
light: DIQMTQSPSSLSASVGDRVTITCKASQDVGAAVAWYQQKPGKAPKLLIYWASTRHTGVPSRFSGSGSGTDFTLTISSLQPEDFATYYCQQYINYPLTFGGGTKVEIKRTVAAPSVFIFPPSDEQLKSGTASVVCLLNNFYPREAKVQWKVDNALQSGNSQESVTEQDSKDSTYSLSSTLTLSKADYEKHKVYACEVTHQGLSSPVTKSFNRGEC
notes: mAbtyrin: anti-OX40 antibody OX40SF2, effector silent IgG2sigma, with linker and R2BS29 FN3 domain at the C-terminus of the heavy chain; also called mAbtyrin
% OX40 cell killed by macrophages (ADCP, 1 µg/ml) [3]: 88%

binding result [5]: no binding
B2: OX40SF2IgG2sigma (antibody)
heavy: QVQLVQSGAEVKKPGSSVKVSCKASGYTFKDYTMHWVRQAPGQGLEWIGGIYPNNGGSTYNQNFKDRVTLTADKSTSTAYMELSSLRSEDTAVYYCARMGYHGPHLDFDVWGQGTTVTVSSASTKGPSVFPLAPCSRSTSESTAALGCLVKDYFPEPVTVSWNSGALTSGVHTFPAVLQSSGLYSLSSVVTVPSSNFGTQTYTCNVDHKPSNTKVDKTVERKCCVECPPCPAPPAAASSVFLFPPKPKDTLMISRTPEVTCVVVDVSAEDPEVQFNWYVDGVEVHNAKTKPREEQFNSTFRVVSVLTVLHQDWLNGKEYKCKVSNKGLPSSIEKTISKTKGQPREPQVYTLPPSREEMTKNQVSLTCLVKGFYPSDIAVEWESNGQPENNYKTTPPMLDSDGSFFLYSKLTVDKSRWQQGNVFSCSVMHEALHNHYTQKSLSLSPGK
light: B1 light
notes: Anti-OX40 antibody, IgG2 sigma isotype (effector silent Fc: V234A, G237A, P238S, H268A, V309L, A330S, P331S against wild type IgG2); control without FN3 domain; also called parental antibody; parental OX40 antibody
% OX40 cell killed by macrophages (ADCP, 1 µg/ml) [3]: 12%

EC50 [1]: 3.3 µg/mL
B3: OX40SF2IgG1 (antibody)
heavy: not shown
light: B1 light
notes: Anti-OX40 antibody, wild-type IgG1; control without FN3 domain

From US20190062420A1 (Janssen / Centocor, published 2019)
